Experimental data: US20090068637A1

Key:
[1] = target: 7aa peptide 8H5A (HGMLPVY); assay: phage ELISA: mAb coated at 5 ug/ml, phage 1:1000, anti-M13/HRP
[2] = target: 7aa peptide 8H5E (NSGPWLT); assay: as above
[3] = target: H5 virus strains (thirty-four strains of H5N1 viruses); assay: cell-based or functional assay

B1: monoclonal antibody 8H5 (antibody, V domains shown)
VH: QVQLQQSGAELMKPGASVKISCKATGYTFSNYWIEWIKQRPGHGLEWIGEILPGSDRTNYNGKFKGKATFTADTSSNTAHMQLSSLTSEDSAVYYCANRYDGYYFGLDYWGQGTSVAVSSA
VL: EIVLTQSPAIMSASLGEKVTMSCRASSSVNFVYWYQQRSDASPKLLIYYSSNLAPGVPPRFSGSGSGNSYSLTISGLEGEDAATYYCQHFTSSPYTFGGGTNLEIKR
With B1 the ELISA reading [1] was 0.559, the ELISA reading [2] was 0.25 and the HI assay: positive number/total virus number (of 34 strains) [3] was 34.
